The supplement of paper PMC10201428
± gives the standard deviation of the averaged measurements.

B1: library; a variant is named by its letters at N, in order (parent)
chain: AATGTTGTTGATGCAACCATAAAGTGATATTTAATAATTATTTATAATCAGCAACTTAACCACAAAACAACCATATATTGATATNTCACAAAACAACCATAANTTGATATTTTTGTGAATCGAGTATTTCAGCAAAACTACTGCAGTAAGAA

Experiments:
[1] = variants of: B1; test: relative integration efficiency (T-LR orientation) vs wild-type transposon end (log2 (normalized fold change)); transposon end mutated: left end; higher = more efficient transposition; settings: with VchCAST RNA-guided transposition machinery (E. coli BL21(DE3) host, lacZ target)
In short: (§1)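 A T7-driven effector plasmid encoding a CRISPR array, tniQ-cas8-cas7-cas6 and tnsA-tnsB-tnsC was co-transformed into E. coli BL21(DE3) together with a pUC57 mini-transposon donor holding barcoded pools of 1549 left-end or 1849 right-end variants. Transformants were plated with 0.1 mM IPTG at 37°C for 18 h. Illumina sequencing of PCR-amplified input plasmids and genomic integration junctions gave barcode abundances, and relative integration efficiency is their output/input fold change, normalised to reference barcodes and log-transformed.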

[2] = variants of: B1; test: relative integration efficiency (T-RL orientation) vs wild-type transposon end (log2 (normalized fold change)); transposon end mutated: left end; higher = more efficient transposition; settings: with VchCAST RNA-guided transposition machinery (E. coli BL21(DE3) host, lacZ target)
In short: as §1

CG T57G A58C A59C C60A
relative integration efficiency (log2) [1]: -1.48 ± 0.099
relative integration efficiency (log2) [2]: -0.817 ± 0.47

CG T56G T57G A58C A59C
relative integration efficiency (log2) [1]: -2.31 ± 0.94
relative integration efficiency (log2) [2]: -1.82 ± 0.62

CG T57G A58C
relative integration efficiency (log2) [1]: -1.37 ± 0.37
relative integration efficiency (log2) [2]: -1.45 ± 0.67

CG T113G T114G G115T T116G G117T A118C A119C T120G C121A G122T A123C G124T T125G
relative integration efficiency (log2) [1]: -0.192 ± 0.1
relative integration efficiency (log2) [2]: -0.0695 ± 0.04

CG G10C A11T T12A G13C
relative integration efficiency (log2) [2]: -0.736 ± 0.86

CG T105A G106C
relative integration efficiency (log2) [1]: -2.53 ± 0.084
relative integration efficiency (log2) [2]: -2.19 ± 0.71

CT T104G
relative integration efficiency (log2) [1]: -0.14 ± 0.17
relative integration efficiency (log2) [2]: -0.45 ± 0.14

CT A21C A22C A23C G24T A75C T76G A77C T78G A101C A102C T104G
relative integration efficiency (log2) [2]: -7.99 ± 1.6

CG T114A G115C T116A G117C
relative integration efficiency (log2) [1]: -0.217 ± 0.74
relative integration efficiency (log2) [2]: -0.00788 ± 0.19

CG T6A G7C
relative integration efficiency (log2) [2]: -6.27 ± 0.56

CG A19C T20G A21C A22C
relative integration efficiency (log2) [2]: -3.48 ± 1.4

CG C49G A50T C52A A53T C55A T56C T57A A59T C61A A62C C63A A64G
relative integration efficiency (log2) [2]: -3.37 ± 1.4

CG T57A A58T A59T C60G
relative integration efficiency (log2) [1]: 1.28 ± 0.42
relative integration efficiency (log2) [2]: 0.281 ± 1

GG T82A A83T T84A
relative integration efficiency (log2) [1]: -0.904 ± 0.77
relative integration efficiency (log2) [2]: -0.974 ± 0.49

CT A22C A23C T76G A77C A102C
relative integration efficiency (log2) [1]: -3.01 ± 0.15
relative integration efficiency (log2) [2]: -3.81 ± 0.97

CG T112G
relative integration efficiency (log2) [1]: -0.249 ± 0.13
relative integration efficiency (log2) [2]: -0.63 ± 0.13

CG T112C
relative integration efficiency (log2) [1]: -0.138 ± 0.38
relative integration efficiency (log2) [2]: -0.258 ± 0.13

CG T112A
relative integration efficiency (log2) [1]: -0.239 ± 0.61
relative integration efficiency (log2) [2]: -0.304 ± 0.19

CG T20G T74G T100G
relative integration efficiency (log2) [2]: -6.64 ± 1.3

CG T8G T9G G10T A11C
relative integration efficiency (log2) [2]: -7.43 ± 0.35

CT A22C A23C G24T T25G T76G A77C T78G T79G A102C T104G T105G
relative integration efficiency (log2) [1]: < -10
relative integration efficiency (log2) [2]: -8.29 ± 1.2

CG T78G T79G G80T A81C
relative integration efficiency (log2) [1]: -3.25 ± 1.3
relative integration efficiency (log2) [2]: -2.44 ± 0.79

CG T82A A83T
relative integration efficiency (log2) [1]: -0.417 ± 0.84
relative integration efficiency (log2) [2]: -0.851 ± 0.49

CG T110G T111G
relative integration efficiency (log2) [1]: -1.08 ± 0.37
relative integration efficiency (log2) [2]: -1.16 ± 0.65

CG T56A T57A
relative integration efficiency (log2) [1]: -0.409 ± 0.79
relative integration efficiency (log2) [2]: -0.165 ± 0.21

CG T111A T112A T113A T114A
relative integration efficiency (log2) [1]: -0.629 ± 0.047
relative integration efficiency (log2) [2]: -0.668 ± 0.39

CG T113G T114G
relative integration efficiency (log2) [1]: -0.0365 ± 0.41
relative integration efficiency (log2) [2]: -0.199 ± 0.073

CG T111G T112G T113G T114G
relative integration efficiency (log2) [1]: -0.443 ± 0.72
relative integration efficiency (log2) [2]: -0.798 ± 0.34

CG T86A C87G A88T C89G
relative integration efficiency (log2) [1]: 0.1 ± 0.54
relative integration efficiency (log2) [2]: -0.174 ± 0.12

CG T120A
relative integration efficiency (log2) [1]: 0.11 ± 0.41
relative integration efficiency (log2) [2]: -0.141 ± 0.026

CG T120C
relative integration efficiency (log2) [1]: -0.00648 ± 0.1
relative integration efficiency (log2) [2]: -0.131 ± 0.053

CG T120G
relative integration efficiency (log2) [1]: -0.103 ± 0.1
relative integration efficiency (log2) [2]: -0.231 ± 0.1
